Test results published in US20120258108A1 (AbbVie / Abbott, published 2012).

Columns and labels:
[1] = molecular target: T1, Recombinant Human TNFα/TNFSF1A (human, UniProt P01375 77-233); assay: SPR (BIACORE)
T1 construct: also called huTNFα
Experimental: The BIACORE assay (Biacore, Inc, Piscataway, N.J.) determines the affinity of antibodies or DVD-Ig with kinetic measurements of on-rate and off-rate constants. Binding of antibodies or DVD-Ig to a target antigen (for example, a purified recombinant target antigen) was determined by surface plasmon resonance-based measurements with a Biacore® 1000 or 3000 instrument (Biacore® AB, Uppsala, Sweden) using running HBS-EP (10 mM HEPES [pH 7.4], 150 mM NaCl, 3 mM EDTA, and 0.005% surfactant P20) at 25° C. All chemicals were obtained from Biacore® AB (Uppsala, Sweden) or otherwise from a different source as described in the text. For example, approximately 5000 RU of goat anti-mouse IgG, (Fcγ), fragment specific polyclonal antibody (Pierce Biotechnology Inc, Rockford, Ill.) diluted in 10 mM sodium acetate (pH 4.5) is directly immobilized across a CM5 research grade biosensor chip using a standard amine coupling kit according to manufacturer's instructions and procedures at 25 μg/ml. Unreacted moieties on the biosensor surface are blocked with ethanolamine. Modified carboxymethyl dextran surface in flowcell 2 and 4 is used as a reaction surface. Unmodified carboxymethyl dextran without goat anti-mouse IgG in flow cell 1 and 3 is used as the reference surface. For kinetic analysis, rate equations derived from the 1:1 Langmuir binding model are fitted simultaneously to association and dissociation phases of all eight injections (using global fit analysis) with the use of Biaevaluation 4.0.1 software. Purified antibodies or DVD-Ig are diluted in HEPES-buffered saline for capture across goat anti-mouse IgG specific reaction surfaces. Antibodies or DVD-Ig to be captured as a ligand (25 μg/ml) are injected over reaction matrices at a flow rate of 5 μl/min. The association and dissociation rate constants, kₒₙ (M⁻¹ s⁻¹) and koff (s⁻¹) are determined under a continuous flow rate of 25 μl/min. Rate constants are derived by making kinetic binding measurements at different antigen concentrations ranging from 10-200 nM. The equilibrium dissociation constant (M) of the reaction between antibodies or DVD-Igs and the target antigen is then calculated from the kinetic rate constants by the following formula: KD=koff/kₒₙ. Binding is recorded as a function of time and kinetic rate constants are calculated.

[2] = molecular target: T1, Recombinant Human TNFα/TNFSF1A; assay: cell-based or functional assay

T1 sequence (P01375 77-233 limits assumed): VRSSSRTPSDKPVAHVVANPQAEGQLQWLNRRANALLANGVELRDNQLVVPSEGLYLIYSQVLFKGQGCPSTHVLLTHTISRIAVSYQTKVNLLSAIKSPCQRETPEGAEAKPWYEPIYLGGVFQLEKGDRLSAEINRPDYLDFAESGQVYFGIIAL

Binder | Kd [1] | koff [1] | kon [1] | TNFα Neutralization Assay EC50 nM (L929 cells) [2] | C-terminal VD TNFα Neutralization Assay EC50 nM (L929 cells) [2]
AB284 (antibody, human IgG1, kappa, V domains shown, CDR-grafted parent antibody; also called TNF (AB058)) VH: EVQLVQSGTEVKKPGESLKISCKASGFTFDDYAMHWVRQMPGKGLEWVSAITWNSGHIDYADSVEGQFTISRDNSFNTLFLQWSSLKASDTAMYYCAKVSYLSTASSLDYWGQGTMVTVSS VL: EIVMTQSPATLSVSPGERATLSCRASQGIRNYLAWYQQKPGQAPRLLIYAASTLQSDVPARFSGSGSGTEFTLTISSLQSEDFAVYYCQRYNRAPYTFGQGTRLEIKR | 0.13 nM | 0.00015 s⁻¹ | 1.2e+06 M⁻¹ s⁻¹ | 0.228 nM | 
AB314 (antibody, human IgG1, kappa, V domains shown, CDR-grafted parent antibody; also called TNF (AB023)) VH: EVQLVESGGGLVQPANSLKLSCAASGFTFDDYAMHWVRQSPKKGLEWVSAITWNSGHIDYADSVEGRFTISRDNAKNTLYLQMDSLRSEDTATYYCAKVSYLSTASSLDYWGQGVLVTVSS VL: DIRMTQSPASLSASLGETVNIECRASQGIRNYLAWYQQKPGKAPQLLIYAASTLQSGVPSRFSGSGSGTQFSLKINSLQSEDVATYYCQRYNRAPYTFGGGTKLELKR | 0.064 nM | 7.9e-05 s⁻¹ | 1.2e+06 M⁻¹ s⁻¹ | 0.053 nM | 
DVD1727 (bispecific antibody, human IgG1, kappa, DVD-Ig; also called PGE2 (AB017) / TNF (AB023) DVD-Ig) heavy: not shown light: DVQMTQSPSSLSASVGDRVTITCTSSQNIVHSNGNTYLEWYQQKPGKSPKLLIYKVSNRFSGVPSRFSGSGSGTDFTLTISSLQPEDVATYYCFQVSHVPYTFGQGTKVEIKRTVAAPDIRMTQSPASLSASLGETVNIECRASQGIRNYLAWYQQKPGKAPQLLIYAASTLQSGVPSRFSGSGSGTQFSLKINSLQSEDVATYYCQRYNRAPYTFGGGTKLELKRTVAAPSVFIFPPSDEQLKSGTASVVCLLNNFYPREAKVQWKVDNALQSGNSQESVTEQDSKDSTYSLSSTLTLSKADYEKHKVYACEVTHQGLSSPVTKSFNRGEC | 5.4 nM | 0.00012 s⁻¹ | 22000 M⁻¹ s⁻¹ |  | 1.17 nM
